Test results: US20250122304A1, “PRE-TARGETING” (Precirix N.V., priority 2022, published 2025)

T1: human FAP (Homo sapiens, UniProt Q12884)
T1 sequence (Q12884 1-760): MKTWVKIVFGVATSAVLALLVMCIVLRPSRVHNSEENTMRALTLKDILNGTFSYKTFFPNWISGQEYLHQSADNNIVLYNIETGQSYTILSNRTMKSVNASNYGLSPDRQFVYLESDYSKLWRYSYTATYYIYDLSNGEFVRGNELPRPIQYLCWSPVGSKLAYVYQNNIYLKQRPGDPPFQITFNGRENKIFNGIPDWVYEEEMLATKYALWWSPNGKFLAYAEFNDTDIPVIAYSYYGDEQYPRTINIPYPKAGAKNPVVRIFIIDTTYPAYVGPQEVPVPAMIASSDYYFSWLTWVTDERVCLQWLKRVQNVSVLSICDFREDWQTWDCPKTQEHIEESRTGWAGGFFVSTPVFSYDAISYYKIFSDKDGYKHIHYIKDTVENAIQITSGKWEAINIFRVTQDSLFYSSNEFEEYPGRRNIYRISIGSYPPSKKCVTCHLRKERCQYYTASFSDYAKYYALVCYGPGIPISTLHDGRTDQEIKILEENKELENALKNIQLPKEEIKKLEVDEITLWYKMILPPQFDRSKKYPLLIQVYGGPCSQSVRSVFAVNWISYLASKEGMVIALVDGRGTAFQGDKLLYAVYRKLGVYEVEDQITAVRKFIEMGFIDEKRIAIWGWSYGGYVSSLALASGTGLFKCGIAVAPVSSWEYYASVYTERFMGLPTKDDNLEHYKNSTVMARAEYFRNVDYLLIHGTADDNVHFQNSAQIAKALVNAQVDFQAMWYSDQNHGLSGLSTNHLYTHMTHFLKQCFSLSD

T2: human fibroblast activation protein (FAP) (human, UniProt Q12884 26-760)
T2 construct: also called human FAP; hFAP
T2 sequence: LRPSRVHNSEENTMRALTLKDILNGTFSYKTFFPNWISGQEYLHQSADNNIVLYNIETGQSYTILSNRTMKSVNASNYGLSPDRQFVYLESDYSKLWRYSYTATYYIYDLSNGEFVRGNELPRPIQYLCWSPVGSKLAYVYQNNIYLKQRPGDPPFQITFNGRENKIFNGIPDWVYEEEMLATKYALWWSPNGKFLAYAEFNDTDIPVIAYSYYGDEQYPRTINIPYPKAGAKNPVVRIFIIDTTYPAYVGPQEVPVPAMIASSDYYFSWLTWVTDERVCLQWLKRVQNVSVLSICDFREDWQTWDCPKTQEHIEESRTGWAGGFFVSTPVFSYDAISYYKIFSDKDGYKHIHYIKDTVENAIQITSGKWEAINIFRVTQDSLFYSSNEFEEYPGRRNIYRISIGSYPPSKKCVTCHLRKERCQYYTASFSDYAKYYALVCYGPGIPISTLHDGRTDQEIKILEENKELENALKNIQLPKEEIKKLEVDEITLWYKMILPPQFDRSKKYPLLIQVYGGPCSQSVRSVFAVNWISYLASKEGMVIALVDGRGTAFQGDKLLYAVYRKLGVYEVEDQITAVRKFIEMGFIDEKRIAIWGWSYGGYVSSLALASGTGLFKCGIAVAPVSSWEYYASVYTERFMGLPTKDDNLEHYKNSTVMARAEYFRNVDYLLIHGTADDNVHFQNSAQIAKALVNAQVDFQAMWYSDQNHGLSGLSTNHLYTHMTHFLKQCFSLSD


Assays:
human FAP [1] = target: T1, human FAP; assay: BLI click reaction with Tz-R3B23 on TCO-VHHs bound to target, span (Example 7, Table 18); conditions: signal difference vs assay buffer
Procedure: Next, Octet Streptavidin (SA) Biosensors were coated with 5 μg/mL biotinylated human FAP in assay buffer (HBS+0.5% BSA+0.1% Tween20) for 5 minutes. The sensors were then dipped in wells containing a 5 nM solution of the different VHHs (both TCO conjugated and unconjugated as control) for 20 minutes (association step) and further transferred to the assay buffer (dissociation step) for 30 minutes. After the dissociation phase, that simulates the lag time, the sensors were transferred to either a well containing 50 nM of a tetrazine-coupled, non-FAP binding R3B23 (Tz-R3B23) or to a well containing assay buffer as a control. This reaction was allowed to proceed for 20 minutes (experiment 1) or 30 minutes (experiment 2) after which the sensors were washed for 30 minutes in assay buffer. In the second experiment the TCO-VHHs were measured in duplicate (referred to as assay 1 and 2 of ‘experiment 2’ in the table below). Using the epitope binning function of ‘Octet Analysis Software’ we then determined the difference in signal between the VHHs incubated with Tz-R3B23 and the VHHs incubated with assay buffer. […] The span of unconjugated VHHs was considered as noise.

human FAP [2] = target: T1, human FAP; assay: BLI (Octet) binding kinetics pre- and post-TCO conjugation (Example 7, Table 17)
Procedure: Five VHHs binding the target (human FAP) with different dissociation rate constants were conjugated to TCO-NHS. Using the BLI technology on Octet system the binding kinetics towards human FAP were determined for each of the five VHHs pre- and post-TCO conjugation.

[3] = target: T2, human fibroblast activation protein …; assay: BLI (Octet), kinetics to human FAP, pre TCO conjugation
Procedure: (§1) Using the BLI technology on Octet system the binding kinetics towards human FAP were determined for each of the five VHHs pre- and post-TCO conjugation.

[4] = target: T2, human fibroblast activation protein …; assay: BLI (Octet), kinetics to human FAP, post TCO conjugation
Procedure: as §1

[5] = target: T3, human folate receptor alpha (FOLR1) (human, UniProt P15328 25-234, limits assumed); assay: SPR (Biacore), kinetics to hFOLR1, pre TCO conjugation
T3 construct: also called hFOLR1; human FOLR1
T3 sequence (P15328 25-234 limits assumed): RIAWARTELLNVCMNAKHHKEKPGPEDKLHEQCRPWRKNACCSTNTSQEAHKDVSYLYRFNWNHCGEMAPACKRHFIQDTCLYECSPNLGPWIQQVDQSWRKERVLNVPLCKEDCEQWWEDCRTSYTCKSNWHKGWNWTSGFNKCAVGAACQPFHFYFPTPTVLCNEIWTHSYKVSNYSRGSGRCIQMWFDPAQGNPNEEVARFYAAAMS

[6] = target: T3, human folate receptor alpha (FOLR1); assay: SPR (Biacore), kinetics to hFOLR1, post TCO conjugation
[7] = Experiment 1, click reaction with 50 nM Tz-R3B23 for 20 minutes
[8] = Experiment 2, 1st assay, click reaction with 50 nM Tz-R3B23 for 30 minutes

| Kd [3] [nM] | koff [3] [s⁻¹] | kon [3] [M⁻¹ s⁻¹] | Kd [4] [nM] | koff [4] [s⁻¹] | kon [4] [M⁻¹ s⁻¹] | Molecule | other results |
| --- | --- | --- | --- | --- | --- | --- | --- |
| 0.453 | 0.0018 | 3.98e+06 |  |  |  | VHH9 (VHH, Anti-FAP VHH, tested before TCO conjugation; also called unconjugated VHH9) VHH: QVQLQESGGGLVQSGGSLRLSCVASGSISSINAMGWYRQAPGNKREWVAGITSGGSTNYADAVLGRFSIFRDNPKNTVYLQMNSLKPEDTAVYYCNTWPPSTFGSWGQGTQVTVSS |  |
| 0.672 | 0.000679 | 1.01e+06 |  |  |  | VHH8 (VHH, Anti-FAP VHH, tested before TCO conjugation; also called unconjugated VHH8) VHH: QVQLQESGGGTVQPGGSLRLSCAASGISVSIASMAWYRQAPGKQRELVAGIISGGSTNYADSVKGRFTISRDNAKKVVLLQMNSLKPEDTAVYYCNTYPPFVGPGATATWGQGTQVTVSS |  |
| 0.0551 | 0.000188 | 3.41e+06 |  |  |  | VHH6 (VHH, Anti-FAP VHH, tested before TCO conjugation; also called unconjugated VHH6) VHH: DVQLVESGGGLVQAGGSLRLSCAVSGSISSANSMGWYRQAPGKQRDVVAGLTTGGRSHYADSVKGRFTISRDNAKNTVYLQMNSLKAEDTAVYYCNLWPPVQGYWGQGTQVTVSS |  |
| 0.0819 | 0.000197 | 2.4e+06 |  |  |  | VHH7 (VHH, Anti-FAP VHH, tested before TCO conjugation; also called unconjugated VHH7) VHH: QVQLQESGGGLVQAGGSLRLSCTASGTFSGRNAMAWYRQAPGKRRELVAGIRSDDSTNYVDSVKGRFTISRDNAKNTVYLQMNSLRPEDTAVYYCNLWPPVIGAGFGSWGQGTQVTVSS |  |

The next lines start with the molecule.

| Molecule | Kd [3] [nM] | koff [3] [s⁻¹] | kon [3] [M⁻¹ s⁻¹] | Kd [4] [nM] | koff [4] [s⁻¹] | kon [4] [M⁻¹ s⁻¹] | other results |
| --- | --- | --- | --- | --- | --- | --- | --- |
| VHH9: VHH, target FAP, SEQ ID NO 92 (protein) VHH: QVQLQESGGGLVQSGGSLRLSCVASGSISSINAMGWYRQAPGNKREWVAGITSGGSTNYADAVLGRFSIFRDNPKNTVYLQMNSLKPEDTAVYYCNTWPPSTFGSWGQGTQVTVSSAAAYPYDVPDYGSHHHHHH |  |  |  |  |  |  | Span (human FAP [1]; [7]): 0.0040; Span (human FAP [1]; [8]): −0.0008; koff (human FAP [2]; Post conjugation (TCO)): 0.0012 s⁻¹; kon (human FAP [2]; Post conjugation (TCO)): 1.26e+06 M⁻¹ s⁻¹; koff (human FAP [2]; Pre conjugation (TCO)): 0.0018 s⁻¹; kon (human FAP [2]; Pre conjugation (TCO)): 3.98e+06 M⁻¹ s⁻¹ |
| VHH1 (VHH, Anti-FAP VHH, tested before TCO conjugation; also called VHH VHH1; unconjugated VHH1) VHH: DVQLVESGGGLVQPGGSLRLSCVASGRLSSSNSMAWYRQVPGKRRELVAGITGGGETNYADFVGGRFTISRDNAKNGLYLQLNGLKPEDTAAYYCNFWPPLINYWGQGTQVTVSS | 0.0482 | 8.52e-05 | 1.77e+06 |  |  |  |  |
| TCO-VHH1 (VHH, trans-cyclooctene (TCO) conjugated via TCO-NHS; site(s) and number not stated, also called TCO conjugated VHH1; VHH1 post conjugation) VHH: DVQLVESGGGLVQPGGSLRLSCVASGRLSSSNSMAWYRQVPGKRRELVAGITGGGETNYADFVGGRFTISRDNAKNGLYLQLNGLKPEDTAAYYCNFWPPLINYWGQGTQVTVSS |  |  |  | 0.0719 | 4.99e-05 | 694000 |  |
| VHH2 (VHH, Anti-FOLR1 VHH, tested before TCO conjugation; also called VHH VHH2; unconjugated VHH2) VHH: DVQLVESGGGLVQPGGSLRLSCAASESIFSRNHMSWYRQAPGKQRELAAIITSDGNTNYPDSVKGRFTISRDNAKNTVYLQMNSLKPEDTAVYYCNTFGRSVAGFYDYWGQGTQVTVSS |  |  |  |  |  |  | Kd [5]: 0.047 nM; koff [5]: 0.000167 s⁻¹; kon [5]: 3.54e+06 M⁻¹ s⁻¹ |
| TCO-VHH2 (VHH, trans-cyclooctene (TCO) conjugated via NHS-TCO; site(s) and number not stated, also called TCO-conjugated VHH2; VHH2 post conjugation) VHH: DVQLVESGGGLVQPGGSLRLSCAASESIFSRNHMSWYRQAPGKQRELAAIITSDGNTNYPDSVKGRFTISRDNAKNTVYLQMNSLKPEDTAVYYCNTFGRSVAGFYDYWGQGTQVTVSS |  |  |  |  |  |  | Kd [6]: 0.0734 nM; koff [6]: 0.000192 s⁻¹; kon [6]: 2.61e+06 M⁻¹ s⁻¹ |
| TCO-VHH9 (VHH, trans-cyclooctene (TCO) conjugated via TCO-NHS; site(s) and number not stated, also called TCO conjugated VHH9; VHH9 post conjugation) VHH: QVQLQESGGGLVQSGGSLRLSCVASGSISSINAMGWYRQAPGNKREWVAGITSGGSTNYADAVLGRFSIFRDNPKNTVYLQMNSLKPEDTAVYYCNTWPPSTFGSWGQGTQVTVSS |  |  |  | 0.951 | 0.0012 | 1.26e+06 |  |
| TCO-VHH8 (VHH, trans-cyclooctene (TCO) conjugated via TCO-NHS; site(s) and number not stated, also called TCO conjugated VHH8; VHH8 post conjugation) VHH: QVQLQESGGGTVQPGGSLRLSCAASGISVSIASMAWYRQAPGKQRELVAGIISGGSTNYADSVKGRFTISRDNAKKVVLLQMNSLKPEDTAVYYCNTYPPFVGPGATATWGQGTQVTVSS |  |  |  | 0.671 | 0.000559 | 833000 |  |
| TCO-VHH6 (VHH, trans-cyclooctene (TCO) conjugated via TCO-NHS; site(s) and number not stated, also called TCO conjugated VHH6; VHH6 post conjugation) VHH: DVQLVESGGGLVQAGGSLRLSCAVSGSISSANSMGWYRQAPGKQRDVVAGLTTGGRSHYADSVKGRFTISRDNAKNTVYLQMNSLKAEDTAVYYCNLWPPVQGYWGQGTQVTVSS |  |  |  | 0.147 | 0.000157 | 1.07e+06 | Span (human FAP [1]; [7]): 0.0230; Span (human FAP [1]; [8]): 0.0287; Span (human FAP [1]; Experiment 2, 2nd assay, click reaction with 50 nM Tz-R3B23 for 30 minutes): 0.0229 |
| TCO-VHH7 (VHH, trans-cyclooctene (TCO) conjugated via TCO-NHS; site(s) and number not stated, also called TCO conjugated VHH7; VHH7 post conjugation) VHH: QVQLQESGGGLVQAGGSLRLSCTASGTFSGRNAMAWYRQAPGKRRELVAGIRSDDSTNYVDSVKGRFTISRDNAKNTVYLQMNSLRPEDTAVYYCNLWPPVIGAGFGSWGQGTQVTVSS |  |  |  | 0.166 | 0.000123 | 746000 |  |
